# Source: article PMC3092763, “Urate Oxidase Purification by Salting-in Crystallization: Towards an Alternative to Chromatography” (PLoS ONE, 2011)
# Target: the molecule itself
# Assay: SEC; analytical SEC of the pools of the downstream process; Superdex 200 GL, 50 mM sodium phosphate buffer pH 8, UV detection at 226 and 280 nm; column calibrated with seven proteins of 13.7 to 669 kDa; oligomer size from the calibration (with IEF profile and activity test as support)
protein,measurement,value
"recombinant urate oxidase from Aspergillus flavus (rasburicase) (enzyme, UniProt Q00511 1-302, looked up, urate oxidase (uricase, EC 1.7.3.3) from Aspergillus flavus, recombinant form (rasburicase); subunit of about 34 kDa, 135 kDa tetramer of identical subunits; Several isoforms are seen by IEF even in the purest pool; also called Fasturtec; Elitek; source: expressed in a genetically modified Saccharomyces cerevisiae strain; supplied by Sanofi-Aventis, sampled at different steps of the downstream …) MSAVKAARYGKDNVRVYKVHKDEKTGVQTVYEMTVCVLLEGEIETSYTKADNSVIVATDSIKNTIYITAKQNPVTPPELFGSILGTHFIEKYNHIHAAHVNIVCHRWTRMDIDGKPHPHSFIRDSEEKRNVQVDVVEGKGIDIKSSLSGLTVLKSTNSQFWGFLRDEYTTLKETWDRILSTDVDATWQWKNFSGLQEVRSHVPKFDATWATAREVTLKTFAEDNSASVQATMYKMAEQILARQQLIETVEYSLPNKHYFEIDLSWHKGLQNTGKNAEVFAPQSDPNGLIKCTVGRSSLKSKL",stoichiometry N,4
